Results from IntAct's records for PubMed 11106648.

B1: Tyrosine-protein phosphatase non-receptor type 1 (Homo sapiens), P18031 (parent)
chain: MEMEKEFEQIDKSGSWAAIYQDIRHEASDFPCRVAKLPKNKNRNRYRDVSPFDHSRIKLHQEDNDYINASLIKMEEAQRSYILTQGPLPNTCGHFWEMVWEQKSRGVVMLNRVMEKGSLKCAQYWPQKEEKEMIFEDTNLKLTLISEDIKSYYTVRQLELENLTTQETREILHFHYTTWPDFGVPESPASFLNFLFKVRESGSLSPEHGPVVVHCSAGIGRSGTFCLADTCLLLMDKRKDPSSVDIKKVLLEMRKFRMGLIQTADQLRFSYLAVIEGAKFIMGDSSVQDQWKELSHEDLEPPPEHIPPPPRPPKRILEPHNGKCREFFPNHQWVKEETQEDKDCPIKEEKGSPLNAAPYGIESMSQDTEVRSRVVGGSLRGAQAASPAKGEPSLPEKDEDHALSYWKPFLVNMCVATVLTAGAYLCYRFLFNSNT

Variants of: B1
Details: with cadh2_chick CDH2, P10288
Sequence of cadh2_chick CDH2, P10288 (P10288 whole entry): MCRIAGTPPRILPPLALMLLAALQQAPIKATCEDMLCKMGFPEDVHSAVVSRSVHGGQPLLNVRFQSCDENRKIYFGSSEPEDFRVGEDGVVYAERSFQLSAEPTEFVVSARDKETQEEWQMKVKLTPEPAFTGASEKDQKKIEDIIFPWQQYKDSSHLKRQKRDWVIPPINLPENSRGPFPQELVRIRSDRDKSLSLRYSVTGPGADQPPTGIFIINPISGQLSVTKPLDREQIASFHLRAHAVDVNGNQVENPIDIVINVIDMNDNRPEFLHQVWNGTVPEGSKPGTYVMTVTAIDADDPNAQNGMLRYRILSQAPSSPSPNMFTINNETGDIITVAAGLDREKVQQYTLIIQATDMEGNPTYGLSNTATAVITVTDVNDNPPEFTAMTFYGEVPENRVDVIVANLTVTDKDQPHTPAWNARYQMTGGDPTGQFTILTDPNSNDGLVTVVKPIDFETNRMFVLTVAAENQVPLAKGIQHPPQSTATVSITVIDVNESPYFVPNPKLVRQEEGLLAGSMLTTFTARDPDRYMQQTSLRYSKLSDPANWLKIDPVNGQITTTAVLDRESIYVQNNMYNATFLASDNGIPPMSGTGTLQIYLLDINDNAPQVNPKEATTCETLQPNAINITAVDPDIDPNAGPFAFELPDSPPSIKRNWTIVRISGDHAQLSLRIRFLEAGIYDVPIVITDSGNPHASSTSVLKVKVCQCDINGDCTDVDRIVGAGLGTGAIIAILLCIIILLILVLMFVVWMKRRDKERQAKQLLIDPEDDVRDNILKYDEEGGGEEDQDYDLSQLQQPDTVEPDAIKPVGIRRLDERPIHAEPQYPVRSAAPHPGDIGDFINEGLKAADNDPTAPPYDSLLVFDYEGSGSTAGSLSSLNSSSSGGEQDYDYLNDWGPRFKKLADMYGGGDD

Variant	effect of a mutation on the interaction
Y66F;Y153F	increasing interaction
Y153F	increasing interaction
Y66F;Y152F	decreasing interaction
Y66F	increasing interaction
C215S	increasing interaction
Y66F;Y152F;Y153F	decreasing interaction
Y152F	decreasing interaction

Variants of: B1
Details: with cadh2_mouse Cdh2, P15116
Sequence of cadh2_mouse Cdh2, P15116 (P15116 whole entry): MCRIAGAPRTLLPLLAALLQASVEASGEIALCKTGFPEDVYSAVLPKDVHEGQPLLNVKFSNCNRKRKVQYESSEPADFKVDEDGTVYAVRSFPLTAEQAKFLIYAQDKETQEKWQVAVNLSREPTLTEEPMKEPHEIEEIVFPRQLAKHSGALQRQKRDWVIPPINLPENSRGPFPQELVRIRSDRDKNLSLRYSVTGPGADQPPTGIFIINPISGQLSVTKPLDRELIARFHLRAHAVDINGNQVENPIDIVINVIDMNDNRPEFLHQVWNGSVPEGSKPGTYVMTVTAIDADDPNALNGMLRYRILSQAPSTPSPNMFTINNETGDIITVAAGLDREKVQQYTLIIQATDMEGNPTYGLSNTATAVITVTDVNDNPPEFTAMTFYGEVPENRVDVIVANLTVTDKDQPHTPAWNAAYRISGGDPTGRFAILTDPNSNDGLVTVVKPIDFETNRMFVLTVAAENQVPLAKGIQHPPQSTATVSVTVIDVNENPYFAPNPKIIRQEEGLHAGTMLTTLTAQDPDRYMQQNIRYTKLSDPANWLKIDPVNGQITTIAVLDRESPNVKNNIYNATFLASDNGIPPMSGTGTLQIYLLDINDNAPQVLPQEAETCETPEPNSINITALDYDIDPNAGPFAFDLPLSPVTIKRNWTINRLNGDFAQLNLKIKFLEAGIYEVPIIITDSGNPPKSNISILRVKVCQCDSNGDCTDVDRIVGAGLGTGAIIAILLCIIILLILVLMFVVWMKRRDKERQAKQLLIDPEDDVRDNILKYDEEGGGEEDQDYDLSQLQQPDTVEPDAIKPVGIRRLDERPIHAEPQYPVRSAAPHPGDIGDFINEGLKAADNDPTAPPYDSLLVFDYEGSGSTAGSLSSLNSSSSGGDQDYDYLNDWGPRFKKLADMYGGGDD

Variant	effect of a mutation on the interaction
C215S	disrupting interaction strength

Variants of: B1
Details: with cadh2_mouse Cdh2, P15116
Remark: another data set of the same source

Variant	effect of a mutation on the interaction
Y152F	disrupting interaction
